In US20180163216, “GENE EXPRESSION IN BACTEROIDES” (Massachusetts Institute of Technology, published 2018):

What was measured:
[1] = system: T1, Int12 serine integrase; assay: cell_activity; conditions: flipping in <1 day in mouse gut with rhamnose; also inversion by PCR in vitro culture
T1 sequence: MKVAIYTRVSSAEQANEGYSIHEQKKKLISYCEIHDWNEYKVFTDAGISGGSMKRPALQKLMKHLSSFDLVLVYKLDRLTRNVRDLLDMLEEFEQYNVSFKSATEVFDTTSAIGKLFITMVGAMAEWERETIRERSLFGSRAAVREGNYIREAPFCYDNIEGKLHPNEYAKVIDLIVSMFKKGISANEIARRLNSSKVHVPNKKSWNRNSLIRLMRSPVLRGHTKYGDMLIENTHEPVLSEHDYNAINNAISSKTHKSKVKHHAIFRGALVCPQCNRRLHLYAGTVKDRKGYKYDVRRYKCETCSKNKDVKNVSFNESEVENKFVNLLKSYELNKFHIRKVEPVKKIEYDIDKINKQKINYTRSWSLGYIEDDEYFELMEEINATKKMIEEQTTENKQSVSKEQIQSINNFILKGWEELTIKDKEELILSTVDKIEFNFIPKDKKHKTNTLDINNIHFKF

[2] = system: RhaR (AraC/XylS-family activator) (Bacteroides thetaiotaomicron); assay: cell_activity; conditions: printed 104-fold (10^4); rhamnose-induced NanoLuc; K=0.3 mM rhamnose, n=1.4
[3] = biological target: T2, LacIQ repressor (Escherichia coli, UniProt P03023 SEQ:5-363); assay: cell_activity; fold induction by IPTG; K=6 uM IPTG; conditions: expressed from PBT1311 in B. thetaiotaomicron; chain copies: 4
Source text: (§1) Next, an IPTG-inducible system was developed. Pairs of LacO1 operator sites were inserted in the strong PcfxA promoter in three locations: upstream of the −33 element (O1), between the −33 and −7 elements (O2) or just downstream of the transcription start site (O3) (FIGS. 7A-7B).

[4] = biological target: T2, LacIQ repressor; assay: cell_activity; fold induction by IPTG; K=86 uM IPTG; conditions: expressed from PBT1311 in B. thetaiotaomicron; chain copies: 4
Source text: as §1

T2 sequence (P03023 2-360): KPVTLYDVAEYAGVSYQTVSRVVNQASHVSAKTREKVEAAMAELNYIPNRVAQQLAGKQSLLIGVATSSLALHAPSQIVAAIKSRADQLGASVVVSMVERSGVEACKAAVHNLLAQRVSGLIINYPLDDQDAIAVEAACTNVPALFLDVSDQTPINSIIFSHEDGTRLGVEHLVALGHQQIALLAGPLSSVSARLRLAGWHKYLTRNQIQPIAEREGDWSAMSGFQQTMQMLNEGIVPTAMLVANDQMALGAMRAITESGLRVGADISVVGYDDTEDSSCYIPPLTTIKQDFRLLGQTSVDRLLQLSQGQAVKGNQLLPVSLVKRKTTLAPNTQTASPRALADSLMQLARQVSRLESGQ

Int12 attB/attP in memory array
activity [1]: > 90%

TATTTCGGAGAAAACATGCATAAATCATGCTTTTTTTGCATAAAAAGTAAAATTTATACTGATGTAAGGTTTGGCTATGCAGATTTGTGTCAAAATGCACATCCTTTCTATCAAAATGCGTAAGGAAAAGGAGGAAGGAACCGCCTATCTTTGCAATGTAGGTAAATGGATACCTTAAATATATAGACAAAATACC (double strand) [PBT3763]
activity [2]: 10000 fold

B1: PLacO23 (dsDNA)
DNA 1: TTACAAAGAAAATTCGACAAACTGTTATTTTTCTATCTATTTATTTGAATTGTGAGCGGATAACAATTACCTTTGTCGGCAATTGTGAGCGGATAACAATTAAATAAAGATATTCTCGTCAAACAAATATAAATAATATAAAC
DNA 2: GTTTATATTATTTATATTTGTTTGACGAGAATATCTTTATTTAATTGTTATCCGCTCACAATTGCCGACAAAGGTAATTGTTATCCGCTCACAATTCAAATAAATAGATAGAAAAATAACAGTTTGTCGAATTTTCTTTGTAA
activity [3]: 22 fold

B2: PLacO13 (dsDNA)
DNA 1: TTACAAAGAAAATTCGACAAACTGTTATTTTTCTATCTATTTAAATTGTGAGCGGATAACAATTTGGGTGGGAAACTTTAGTTATGTACCTTTGTCGGCAATTGTGAGCGGATAACAATTAAATAAAGATATTCTCGTCAAACAAATATAAATAATATAAAC
DNA 2: GTTTATATTATTTATATTTGTTTGACGAGAATATCTTTATTTAATTGTTATCCGCTCACAATTGCCGACAAAGGTACATAACTAAAGTTTCCCACCCAAATTGTTATCCGCTCACAATTTAAATAGATAGAAAAATAACAGTTTGTCGAATTTTCTTTGTAA
activity [4]: 8 fold
